Columns and labels:
p52-RHD;ETS1 331-441 = biological target: T1, p52-RHD;ETS1 331-441 (human;human, UniProt Q00653;P14921 35-329;331-441, |); assay: X-ray crystallography; ETS1 contacts the DNA; p52-DBSD disordered and p52-DSD bound to ETS1; ITC: 25 mM Tris-HCl pH 7.5, 200 mM NaCl, 3 mM TCEP, 8 °C. EMSA: 20 mM Tris-HCl pH 7.5, 150 mM NaCl, 4 °C, 1 h, 4-16% native PAGE; conditions: protein: recombinant;recombinant; tags: GST removed (PreScission, pGEX-6P-1);GST removed (PreScission, pGEX-6P-1); chain copies: 2;1; 5' overhang 1 nt at each end, 15 bp
T1 sequence 1: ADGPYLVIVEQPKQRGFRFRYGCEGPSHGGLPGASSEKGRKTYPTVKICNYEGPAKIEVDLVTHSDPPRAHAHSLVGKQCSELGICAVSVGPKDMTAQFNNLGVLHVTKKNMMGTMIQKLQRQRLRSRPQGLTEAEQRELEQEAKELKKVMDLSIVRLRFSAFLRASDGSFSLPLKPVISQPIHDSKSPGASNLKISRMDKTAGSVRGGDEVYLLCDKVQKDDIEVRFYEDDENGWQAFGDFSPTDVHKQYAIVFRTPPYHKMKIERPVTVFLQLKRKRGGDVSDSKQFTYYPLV
T1 sequence 2: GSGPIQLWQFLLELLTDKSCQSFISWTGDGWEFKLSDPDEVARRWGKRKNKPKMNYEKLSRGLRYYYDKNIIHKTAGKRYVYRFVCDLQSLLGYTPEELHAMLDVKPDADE

ETS1 296-441;p52-DSD [1] = biological target: T2, ETS1 296-441;p52-DSD (human;human, UniProt P14921;Q00653 296-441;226-328, |); assay: ITC; 100 uM p52-DSD in cell; flanks make no contribution to affinity; ITC: 25 mM Tris-HCl pH 7.5, 200 mM NaCl, 3 mM TCEP, 8 °C. EMSA: 20 mM Tris-HCl pH 7.5, 150 mM NaCl, 4 °C, 1 h, 4-16% native PAGE; conditions: protein: recombinant;recombinant; tags: GST removed (PreScission, pGEX-6P-1);GST removed (PreScission, pGEX-6P-1); copies: 1;2; blunt
T2 sequence 1: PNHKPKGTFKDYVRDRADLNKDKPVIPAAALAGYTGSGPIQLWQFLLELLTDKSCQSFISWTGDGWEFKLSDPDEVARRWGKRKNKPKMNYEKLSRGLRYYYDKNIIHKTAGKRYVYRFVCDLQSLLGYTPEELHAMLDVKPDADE
T2 sequence 2: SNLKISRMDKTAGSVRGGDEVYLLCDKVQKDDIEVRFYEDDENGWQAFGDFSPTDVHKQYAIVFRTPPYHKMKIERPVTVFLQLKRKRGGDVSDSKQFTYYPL

ETS1 296-441;p52-DSD [2] = biological target: T2, ETS1 296-441;p52-DSD; assay: ITC; 100 uM p52-DSD in cell; greater affinity than ETS1 alone; ITC: 25 mM Tris-HCl pH 7.5, 200 mM NaCl, 3 mM TCEP, 8 °C. EMSA: 20 mM Tris-HCl pH 7.5, 150 mM NaCl, 4 °C, 1 h, 4-16% native PAGE; conditions: protein: recombinant;recombinant; tags: GST removed (PreScission, pGEX-6P-1);GST removed (PreScission, pGEX-6P-1); copies: 1;2; 5' overhang 1 nt at each end, 25 bp
ETS1 296-441;p52-RHD = biological target: T3, ETS1 296-441;p52-RHD (human;human, UniProt P14921;Q00653 296-441;35-329, |); assay: ITC; 100 uM p52-RHD in cell; no enhancement over p52-DSD; ITC: 25 mM Tris-HCl pH 7.5, 200 mM NaCl, 3 mM TCEP, 8 °C. EMSA: 20 mM Tris-HCl pH 7.5, 150 mM NaCl, 4 °C, 1 h, 4-16% native PAGE; conditions: protein: recombinant;recombinant; tags: GST removed (PreScission, pGEX-6P-1);GST removed (PreScission, pGEX-6P-1); copies: 1;2; 5' overhang 1 nt at each end, 25 bp
T3 sequence 1: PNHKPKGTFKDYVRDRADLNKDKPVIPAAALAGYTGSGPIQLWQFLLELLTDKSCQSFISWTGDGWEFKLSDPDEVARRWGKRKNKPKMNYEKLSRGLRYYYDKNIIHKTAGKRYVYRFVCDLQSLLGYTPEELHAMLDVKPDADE
T3 sequence 2: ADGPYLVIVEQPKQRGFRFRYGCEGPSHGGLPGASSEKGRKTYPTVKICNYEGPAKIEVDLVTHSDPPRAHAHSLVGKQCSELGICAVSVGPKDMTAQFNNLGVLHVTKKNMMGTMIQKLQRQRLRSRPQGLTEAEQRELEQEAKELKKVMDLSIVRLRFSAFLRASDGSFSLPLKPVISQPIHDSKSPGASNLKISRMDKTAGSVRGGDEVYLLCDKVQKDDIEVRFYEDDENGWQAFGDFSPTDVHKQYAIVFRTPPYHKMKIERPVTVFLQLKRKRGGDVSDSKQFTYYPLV

[3] = biological target: T4, Flag-tagged ETS1_(331–441), P14921; assay: FLAG pull-down, band densitometry; conditions: chain shown with the change;; parent: est. 1.0; read off a plot
T4 chain: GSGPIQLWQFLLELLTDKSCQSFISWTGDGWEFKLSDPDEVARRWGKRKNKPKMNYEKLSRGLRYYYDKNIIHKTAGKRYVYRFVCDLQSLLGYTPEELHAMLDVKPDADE

ETS1_(331–441), P14921 = biological target: T5, ETS1_(331–441), P14921; assay: ITC
T5 chain: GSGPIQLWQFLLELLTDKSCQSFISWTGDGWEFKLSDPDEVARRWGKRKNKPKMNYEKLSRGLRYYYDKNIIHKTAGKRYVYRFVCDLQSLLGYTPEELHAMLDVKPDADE

ETS1_(331–441) [4] = biological target: T6, ETS1_(331–441) (human, UniProt P14921 331-441); assay: ITC; 8 °C; 25 mM Tris-HCl pH 7.5, 200 mM NaCl, 3 mM TCEP; 20 μM ETS1 fragment in the cell titrated with 200 μM p52-RHD in the syringe; single-site model
T6 chain: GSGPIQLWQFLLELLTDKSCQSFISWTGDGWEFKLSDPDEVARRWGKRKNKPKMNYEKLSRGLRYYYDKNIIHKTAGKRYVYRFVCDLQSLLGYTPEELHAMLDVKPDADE

[5] = biological target: the molecule itself; assay: cross-linking + native gel or EMSA; cysteine mutants mixed at a molar ratio of 1:2, DTT removed, disulfide cross-linking with 30 µM CuCl2 and 100 µM phenanthroline for 1 h at 25 °C; 4–16% gradient blue native PAGE; reversed with 20 mM DTT
ETS1_(331–441) [6] = biological target: T6, ETS1_(331–441); assay: ITC
ETS1_(296–441) [7] = biological target: T7, ETS1_(296–441) (human, UniProt P14921 296-441); assay: ITC
T7 chain: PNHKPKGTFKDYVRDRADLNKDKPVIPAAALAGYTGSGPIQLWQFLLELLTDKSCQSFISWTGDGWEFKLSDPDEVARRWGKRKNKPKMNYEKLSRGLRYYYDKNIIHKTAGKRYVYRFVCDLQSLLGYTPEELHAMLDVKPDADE

ETS1_(296–441) [8] = biological target: T7, ETS1_(296–441); assay: ITC; 8 °C; 25 mM Tris-HCl pH 7.5, 200 mM NaCl, 3 mM TCEP; 20 μM ETS1 fragment in the cell titrated with 200 μM p52-RHD in the syringe; single-site model
[9] = biological target: the molecule itself; assay: crystal structure; p52-RHD, ETS1_(331–441) and a 15 bp -146C>T TERT promoter DNA mixed 1:1:1; crystals at 18 °C in 100 mM HEPES pH 7.0, 2.0 M ammonium sulfate
ETS1_(296–441) [10] = biological target: T7, ETS1_(296–441); assay: ITC

B1: 15 bp -146C>T TERT promoter DNA (dsDNA)
DNA 1: GCCCTTCCGGGTCCCC
DNA 2: CGGGGACCCGGAAGGG
p52-RHD;ETS1 331-441
  binding result: binds

B2: 10 bp -146C>T TERT promoter DNA (dsDNA)
DNA 1: CCCTTCCGGG
DNA 2: CCCGGAAGGG
ETS1 296-441;p52-DSD [1]
  binding result: binds

B3: 25 bp -146C>T TERT promoter DNA (dsDNA)
DNA 1: GTCCCGACCCCTTCCGGGTCCCCGGC
DNA 2: CGCCGGGGACCCGGAAGGGGTCGGGA
ETS1 296-441;p52-DSD [2]
  binding result: binds
ETS1 296-441;p52-RHD
  binding result: binds

B4: p52-RHD (residues 35–329), Q00653 R241A; M297A; K298A (protein)
chain: ADGPYLVIVEQPKQRGFRFRYGCEGPSHGGLPGASSEKGRKTYPTVKICNYEGPAKIEVDLVTHSDPPRAHAHSLVGKQCSELGICAVSVGPKDMTAQFNNLGVLHVTKKNMMGTMIQKLQRQRLRSRPQGLTEAEQRELEQEAKELKKVMDLSIVRLRFSAFLRASDGSFSLPLKPVISQPIHDSKSPGASNLKISRMDKTAGSVAGGDEVYLLCDKVQKDDIEVRFYEDDENGWQAFGDFSPTDVHKQYAIVFRTPPYHKAAIERPVTVFLQLKRKRGGDVSDSKQFTYYPLV
[3]
  ratio to parent: 0.26
ETS1_(331–441), P14921; chain shown with the change
  Kd: 33.2 µM
ETS1_(331–441), P14921; chain shown with the change;, parent: 1.48E5 ± 1.07E4
  Ka: 30100 M⁻¹

B5: p52-RHD (residues 35–329), Q00653 M297A (protein)
chain: ADGPYLVIVEQPKQRGFRFRYGCEGPSHGGLPGASSEKGRKTYPTVKICNYEGPAKIEVDLVTHSDPPRAHAHSLVGKQCSELGICAVSVGPKDMTAQFNNLGVLHVTKKNMMGTMIQKLQRQRLRSRPQGLTEAEQRELEQEAKELKKVMDLSIVRLRFSAFLRASDGSFSLPLKPVISQPIHDSKSPGASNLKISRMDKTAGSVRGGDEVYLLCDKVQKDDIEVRFYEDDENGWQAFGDFSPTDVHKQYAIVFRTPPYHKAKIERPVTVFLQLKRKRGGDVSDSKQFTYYPLV
[3]
  ratio to parent: 0.72

B6: p52-RHD (residues 35–329), Q00653 K298A (protein)
chain: ADGPYLVIVEQPKQRGFRFRYGCEGPSHGGLPGASSEKGRKTYPTVKICNYEGPAKIEVDLVTHSDPPRAHAHSLVGKQCSELGICAVSVGPKDMTAQFNNLGVLHVTKKNMMGTMIQKLQRQRLRSRPQGLTEAEQRELEQEAKELKKVMDLSIVRLRFSAFLRASDGSFSLPLKPVISQPIHDSKSPGASNLKISRMDKTAGSVRGGDEVYLLCDKVQKDDIEVRFYEDDENGWQAFGDFSPTDVHKQYAIVFRTPPYHKMAIERPVTVFLQLKRKRGGDVSDSKQFTYYPLV
[3]
  ratio to parent: 0.69

B7: p52-RHD RMK>A (domain or fragment)
chain: ADGPYLVIVEQPKQRGFRFRYGCEGPSHGGLPGASSEKGRKTYPTVKICNYEGPAKIEVDLVTHSDPPRAHAHSLVGKQCSELGICAVSVGPKDMTAQFNNLGVLHVTKKNMMGTMIQKLQRQRLRSRPQGLTEAEQRELEQEAKELKKVMDLSIVRLRFSAFLRASDGSFSLPLKPVISQPIHDSKSPGASNLKISRMDKTAGSVAGGDEVYLLCDKVQKDDIEVRFYEDDENGWQAFGDFSPTDVHKQYAIVFRTPPYHKAAIERPVTVFLQLKRKRGGDVSDSKQFTYYPLV
ETS1_(331–441) [4]
  fold reduction of binding against WT p52: 5 fold

B8: p52-RHD (residues 35–329), Q00653 R241A (protein)
chain: ADGPYLVIVEQPKQRGFRFRYGCEGPSHGGLPGASSEKGRKTYPTVKICNYEGPAKIEVDLVTHSDPPRAHAHSLVGKQCSELGICAVSVGPKDMTAQFNNLGVLHVTKKNMMGTMIQKLQRQRLRSRPQGLTEAEQRELEQEAKELKKVMDLSIVRLRFSAFLRASDGSFSLPLKPVISQPIHDSKSPGASNLKISRMDKTAGSVAGGDEVYLLCDKVQKDDIEVRFYEDDENGWQAFGDFSPTDVHKQYAIVFRTPPYHKMKIERPVTVFLQLKRKRGGDVSDSKQFTYYPLV
[3]
  ratio to parent: 0.51

B9: p52-RHD (R241C, C57S, and C83S) (domain or fragment, human, UniProt Q00653 35-329, looked up)
chain: ADGPYLVIVEQPKQRGFRFRYGSEGPSHGGLPGASSEKGRKTYPTVKISNYEGPAKIEVDLVTHSDPPRAHAHSLVGKQCSELGICAVSVGPKDMTAQFNNLGVLHVTKKNMMGTMIQKLQRQRLRSRPQGLTEAEQRELEQEAKELKKVMDLSIVRLRFSAFLRASDGSFSLPLKPVISQPIHDSKSPGASNLKISRMDKTAGSVCGGDEVYLLCDKVQKDDIEVRFYEDDENGWQAFGDFSPTDVHKQYAIVFRTPPYHKMKIERPVTVFLQLKRKRGGDVSDSKQFTYYPLV
modifications: disulfide from Cys241 to Cys343 of ETS1_(331–441) (E343C and C350S) after cross-linking with CuCl2 and phenanthroline
[5]
  binding result: binds

B10: p52-RHD (residues 35–329) (domain or fragment, human, UniProt Q00653 35-329, looked up)
chain: ADGPYLVIVEQPKQRGFRFRYGCEGPSHGGLPGASSEKGRKTYPTVKICNYEGPAKIEVDLVTHSDPPRAHAHSLVGKQCSELGICAVSVGPKDMTAQFNNLGVLHVTKKNMMGTMIQKLQRQRLRSRPQGLTEAEQRELEQEAKELKKVMDLSIVRLRFSAFLRASDGSFSLPLKPVISQPIHDSKSPGASNLKISRMDKTAGSVRGGDEVYLLCDKVQKDDIEVRFYEDDENGWQAFGDFSPTDVHKQYAIVFRTPPYHKMKIERPVTVFLQLKRKRGGDVSDSKQFTYYPLV
notes: In the crystal only residues 226-328 (p52-DSD) are ordered; two p52-DSD form a homodimer through a crystallographic 2-fold axis; also called WT p52
ETS1_(331–441) [6]
  Ka: 148000 M⁻¹
ETS1_(296–441) [7]
  Kd: 19.1 µM
ETS1_(296–441) [8]
  fold reduction of binding against ETS1 (331–441): 3 fold
ETS1_(331–441) [4]
  Kd: 6.76 µM
[9]
  binding result: binds
ETS1_(296–441) [10]
  Ka: 52400 M⁻¹

From article PMC6085347, “Structural basis for reactivating the mutant TERT promoter by cooperative binding of p52 and ETS1” (Nature Communications, 2018)
